Biological target: wild type (51S) wheat eIF2α (alpha subunit of wheat eukaryotic initiation factor 2) (wheat)
Experiment: cell-based or functional assay

With “PKR (IPTG-inducible, expressed from recombinant vaccinia virus WR 68K) (from UniProt P19525 2-551) (enzyme)” the phosphorylated peIF2α 51S, densitometric analyses of western blots (HeLa cells) was 3.8 fold.

Source: patent publication US6692962
